# Source: the supplement of paper PMC10126150
# ± gives the standard deviation of the averaged measurements.
# Tested on: ATP
# Experiment: switch fluorescence ratio, 500 uM ATP over buffer (Cy3 cluster intensity, sum of 5 cycles each) (fold (ratio)); higher = stronger signal-on switching upon ATP binding; sequences stand for … in TCGTCGGCAGCGTCAGATGTGTATAAGAGACAGTTTTTTTTTTTTTTTTTTTTTTTTT…TC
# Conditions: aptamer strand: ATP DNA aptamer (quencher-CACCTGGGGGAGTATTGCGGAGGAAGG + anchor), 100 nM annealed; ATP concentration: 500 uM
# Outline: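 After annealing to 100 nM quencher-labelled ATP aptamer, Cy3-labelled switching-strand clusters on a modified Illumina MiSeq flow-cell were imaged in selection buffer. A second image followed after 15 min with 500 uM ATP at 22 °C, and five such buffer/ATP cycles were done, each separated by NaOH stripping and re-annealing. The fluorescence ratio, averaged per switch-domain sequence, is summed target-cycle over summed buffer-cycle Cy3 intensity per cluster, with clusters outside 100-1000 RFU excluded.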
# 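Note: ATP exposure 15 min at 22 °C before imaging.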
row,Sequence,switch fluorescence ratio
1,GACAACGTA,0.9967 ± 0.0095
2,AAGCCTTGGG,1.02 ± 0.022
3,AGGGTCTGGG,0.993 ± 0.034
4,ATTTTTGATT,0.984 ± 0.018
5,CCGTTGGCCT,1.042 ± 0.0065
6,GTTGCGGGCG,0.991 ± 0.06
7,ATCGTGTGTC,0.987 ± 0.071
8,CAATTGTTCC,1.04 ± 0.021
9,TAAGGAGGTG,1.033 ± 0.008
10,TTTGGGGCAG,1.06 ± 0.078
11,GTGTATCCGT,0.994 ± 0.018
12,GGGGTTGGGG,0.994 ± 0.031
13,CGATCCTATG,0.969 ± 0.045
14,GTTTAATGGT,0.9852 ± 0.009
15,TGGGGTGTTT,0.983 ± 0.045
16,ATGCGCACCG,1.05 ± 0.023
17,TCTATGCATG,1.04 ± 0.029
18,CGGGGTTTGG,0.999 ± 0.017
19,GACCCTGATC,1.17 ± 0.058
20,ACTGGAGGGC,1.08 ± 0.1
21,TGATGGTGC,1.05 ± 0.066
22,TATGAAGGGA,0.99 ± 0.021
23,CGGGTATTAA,0.994 ± 0.032
24,CTGGTGATTT,1.05 ± 0.053
25,GCTCTCACTT,1.02 ± 0.043

row,Sequence,switch fluorescence ratio
1,TATCGACGGC,1.03 ± 0.05
2,TCAATGATTT,0.969 ± 0.022
3,GTGGGATTGA,0.9898 ± 0.0043
4,TTTTGGCGGC,0.9504 ± 0.0056
5,TAGGAAATTA,1 ± 0.015
6,TTTAACATCA,0.984 ± 0.047
7,GGTGTTCACT,0.995 ± 0.019
8,AAGTTTAGCA,1.01 ± 0.021
9,TTCGTAGCAG,1.23 ± 0.063
10,TTCACGGGAT,1.06 ± 0.035
11,GTTTCAACTG,1 ± 0.12
12,TCTTAACGGC,1.04 ± 0.05
13,GGGCTAGGTA,1.01 ± 0.0074
14,TGGGTTACCT,1.05 ± 0.01
15,TACAAGGTCA,1.01 ± 0.0045
16,AAAGGGGATG,1.01 ± 0.016
17,ATTTATTTGT,0.986 ± 0.03
18,GCCGGTAGGG,0.98 ± 0.031
19,TTGGGCGTTC,1.12 ± 0.15
20,CTAAGGGATT,1.01 ± 0.058
21,TGTGGTTCGA,0.972 ± 0.011
22,TTGGTTTTAT,1.02 ± 0.014
23,ATTTACGGGT,1.015 ± 0.0082
24,TTCCACGTAT,1.18 ± 0.046
25,CTTGTTGTTT,1.03 ± 0.15

row,Sequence,switch fluorescence ratio
1,GTTTTAGTCA,0.9989 ± 0.001
2,CTTGACAGA,1.03 ± 0.024
3,TGCCAAGGTT,1.02 ± 0.034
4,GGGTTTGCGA,1.02 ± 0.048
5,ATAACGTTGA,0.99 ± 0.017
6,ACGTCCGCTA,2.6 ± 0.064
7,ATATTTGATA,1.01 ± 0.039
8,TTTTTTTGTA,1.01 ± 0.042
9,ATCGTAGGTG,1.04 ± 0.12
10,TCATAAGTAT,0.995 ± 0.086
11,AAGTTAGTTA,1.03 ± 0.02
12,CCGGCTTTCC,1.15 ± 0.027
13,TAGGATAGGG,0.9972 ± 0.0021
14,CCTGGAGTTA,1.04 ± 0.1
15,TTCCTGTCGT,1.004 ± 0.0021
16,GGGGAAAATT,0.993 ± 0.036
17,CGGATGGTCA,1.013 ± 0.0099
18,TAAGGGGGAA,1.03 ± 0.06
19,GGGGGCAGGC,0.964 ± 0.053
20,TAGGGACGCA,1.16 ± 0.018
21,CTCTACAGGG,1.04 ± 0.042
22,ACATTGTACG,1.09 ± 0.019
23,GGAGGGGGCA,0.9654 ± 0.0011
24,ACCATTTGTC,1.06 ± 0.094
25,TTCTAATCCG,1.036 ± 0.0091

row,Sequence,switch fluorescence ratio
1,GGCCGGAGAC,1.15 ± 0.041
2,ACTTAGACAC,1.095 ± 0.0089
3,ACGGATGTTT,0.997 ± 0.022
4,TTAACTAGGC,0.989 ± 0.054
5,TTTCCGTTTC,1.06 ± 0.04
6,TATGGAGGCT,1.07 ± 0.015
7,ATTATGAGTA,0.9727 ± 0.0091
8,CAATTGTACG,1 ± 0.011
9,GGTAGACGGT,1.02 ± 0.049
10,AAAACATGGA,0.9537 ± 0.0037
11,GGACTAGGAG,1.05 ± 0.012
12,ATTTTTTAGG,0.993 ± 0.025
13,CTTGGGGAAT,1.13 ± 0.24
14,GGGGGGCTAT,0.976 ± 0.02
15,GATCGAAACT,1.01 ± 0.081
16,TGGGAGAGGG,1.01 ± 0.02
17,GGGCGGGTTT,1.005 ± 0.0026
18,GGGGTCTGGG,0.966 ± 0.016
19,GACCTGTTTT,0.987 ± 0.063
20,AACAGTGTTT,0.971 ± 0.065
21,TTGCTTCCGT,1.1 ± 0.084
22,ATGGGGGAGC,0.981 ± 0.011
23,CGAGGCCTGG,1 ± 0.011
24,TAGTTGGGGT,1 ± 0.03
25,TTTGAAAGCT,1.164 ± 0.0067

row,Sequence,switch fluorescence ratio
1,CCAAGGGAAA,0.9822 ± 0.0032
2,AGCGGGGGAG,1.01 ± 0.012
3,CGGTGTGGCT,0.97 ± 0.016
4,TCGTAAAGTT,0.955 ± 0.02
5,GATATATATC,0.9903 ± 0.0054
6,ATCGGTCATG,0.993 ± 0.013
7,TTGTTATGGC,0.9795 ± 0.0059
8,GAATTTTCGC,0.995 ± 0.029
9,ATGGGTGGG,0.965 ± 0.032
10,GTTGCTGGTG,1.025 ± 0.0071
11,CAGAGGGGTA,1.01 ± 0.03
12,TTGAATAAGA,1 ± 0.071
13,GGGATTTTGG,0.973 ± 0.026
14,CTGTTGCCTG,0.974 ± 0.041
15,CATTGAATCT,1.02 ± 0.02
16,TAAGCGTCTG,1.013 ± 0.0057
17,ATGAGGCCGG,1.12 ± 0.066
18,GAATTCAGTG,0.9953 ± 0.0096
19,TGGGAGGCCT,1.02 ± 0.021
20,TTTAGTCGTA,1.01 ± 0.021
21,TGGGAGTGGG,0.983 ± 0.019
22,AGCTTCCATG,1.09 ± 0.023
23,CGGCCTGTTG,1.01 ± 0.026
24,ACGACTCCCG,1.109 ± 0.0044
25,TACGTGGGGG,1.02 ± 0.029

row,Sequence,switch fluorescence ratio
1,ACCGGAGAGC,1.1 ± 0.18
2,TTTGTTGTCT,0.995 ± 0.011
3,AGCCGTTGAG,0.9916 ± 0.0061
4,CCGTGTGGCT,1.027 ± 0.0022
5,CCAGGCTGAG,1.05 ± 0.022
6,GCCCCGGGTT,1.36 ± 0.37
7,ATGCGCTAAT,1.07 ± 0.013
8,GAATCACAGC,1.02 ± 0.033
9,GATACGAAGT,0.981 ± 0.028
10,TATTAAACTC,1.02 ± 0.017
11,TTTTTAAGCA,1.02 ± 0.034
12,TGATACATAA,1.028 ± 0.0097
13,GCAGGCGGGG,1.02 ± 0.034
14,CAGGGCGTAT,1 ± 0.026
15,TTAAACGC,1.03 ± 0.012
16,ATGCTGGTTA,0.996 ± 0.016
17,ATTTACGAGT,0.981 ± 0.045
18,TTTTGTATCG,0.948 ± 0.052
19,GGGGTTGAAG,0.979 ± 0.01
20,CCTATGGGGG,1.49 ± 0.66
21,ACCAAGTTCA,1.02 ± 0.014
22,TGTTATAGG,1.001 ± 0.0098
23,ATTAAGAGTA,0.961 ± 0.012
24,GCTGAAAAGA,0.97 ± 0.032
25,TGGTGTAAGA,1.04 ± 0.025

row,Sequence,switch fluorescence ratio
1,GGCTTAAGGT,1.02 ± 0.064
2,GCATCTTGGG,1 ± 0.029
3,GCCTTGATGG,1.01 ± 0.021
4,CCAAGTTGCC,0.9929 ± 0.0092
5,TGAGATACGA,1.0108 ± 0.0001
6,ATTTTCCAGT,1.01 ± 0.011
7,TACGGGAACG,1.06 ± 0.018
8,TTTTTAGAGT,0.985 ± 0.026
9,CAATGGGTCT,0.9523 ± 0.0028
10,CCAGGGGGGT,1.99 ± 1.4
11,CGTGGCGCCG,0.957 ± 0.054
12,TAATTTCTGC,0.993 ± 0.018
13,CGGGGTTATT,0.989 ± 0.014
14,AATTCGGGGT,1.005 ± 0.0024
15,CAATTCGCTA,1.21 ± 0.089
16,GGAAGGCGGG,1.11 ± 0.16
17,TTTGTTGCTG,1.03 ± 0.039
18,CCCGGGGGCA,1.21 ± 0.25
19,ACGTATGTTG,1.022 ± 0.0017
20,GGAGGTGTGT,1.02 ± 0.021
21,TCTGTGGGTT,0.973 ± 0.051
22,ATTGGGGCGC,0.991 ± 0.041
23,GACACACCCG,1.13 ± 0.046
24,TCGGGATACT,1.86 ± 0.32
25,CAAATAGTCG,1.01 ± 0.027

row,Sequence,switch fluorescence ratio
1,TTATTTGATT,1.01 ± 0.029
2,AAGGGTTGAG,0.981 ± 0.046
3,GGGGACGGGG,1 ± 0.03
4,TTTATGTGTG,0.999 ± 0.026
5,TGACATTCGA,1.0321 ± 0.00051
6,TTAGTCCAGA,1.007 ± 0.0018
7,TGTAACTGTG,1.15 ± 0.028
8,GGTTTCGATA,0.96836 ± 1.5e-05
9,AGGCGGGTAA,1.022 ± 0.0082
10,TTGGGCGGTT,1.13 ± 0.25
11,ATGGGCTATA,1.03 ± 0.094
12,AAGGTCTGAG,1.02 ± 0.043
13,ACAAAAAGGG,1.02 ± 0.039
14,TTGACAGCGA,1.22 ± 0.061
15,TTAAATAGGT,0.9956 ± 0.0088
16,CCATAGAGAT,1.025 ± 0.0025
17,ACGGTGTGCG,1 ± 0.058
18,AAGGATTCCA,0.981 ± 0.014
19,TGAAAACGGG,1.022 ± 0.0095
20,CGGAGAGAGC,0.993 ± 0.011
21,ATGCTGGTAT,0.981 ± 0.024
22,TAAGGAATGC,1.54 ± 0.035
23,TAACAGGTTT,0.989 ± 0.016
24,AGATTAAAGA,1.006 ± 0.009
25,ATTTATTCTT,1.011 ± 0.0052
